Measured values reported in paper PMC7229837, “Molecular architecture of the DNA-binding sites of the P-loop ATPases MipZ and ParA from Caulobacter crescentus”.

Legend:
ParA WT = target: T1, ParA WT (Caulobacter crescentus, UniProt B8GW31 1-267); experiment: HDX-MS; 1 mM ATPgS; regions R1, R2, R4 protected; EMSA: 10 mM HEPES/NaOH pH 7.2, 150 mM NaCl, 10 mM MgCl2, 0.05% Tween 20, 0.46 mM ATPgS, room temp; BLI: 50 mM HEPES/NaOH pH 7.2, 50 mM NaCl, 5 mM MgCl2, 0.1 mM; details: protein: recombinant; tags: C-terminal His6; chain copies: 2; blunt
T1 sequence: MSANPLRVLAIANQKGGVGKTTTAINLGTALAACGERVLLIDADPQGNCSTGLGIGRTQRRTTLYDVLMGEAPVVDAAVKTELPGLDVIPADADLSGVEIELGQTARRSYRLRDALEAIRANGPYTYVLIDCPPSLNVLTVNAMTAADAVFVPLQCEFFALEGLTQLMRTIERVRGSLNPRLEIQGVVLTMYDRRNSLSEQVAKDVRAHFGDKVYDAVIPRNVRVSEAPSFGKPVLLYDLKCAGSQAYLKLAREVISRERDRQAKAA

MipZ D42A = target: T2, MipZ D42A (Caulobacter crescentus, UniProt Q9A6C9 1-278, D42A); experiment: HDX-MS; 1 mM ATPgS; regions R1, R3, R4 protected; EMSA: 10 mM HEPES/NaOH pH 7.2, 150 mM NaCl, 10 mM MgCl2, 0.05% Tween 20, 0.46 mM ATPgS, room temp; BLI: 50 mM HEPES/NaOH pH 7.2, 50 mM NaCl, 5 mM MgCl2, 0.1 mM; details: protein: recombinant; tags: C-terminal His6 (pET21a); chain copies: 2; blunt
T2 sequence: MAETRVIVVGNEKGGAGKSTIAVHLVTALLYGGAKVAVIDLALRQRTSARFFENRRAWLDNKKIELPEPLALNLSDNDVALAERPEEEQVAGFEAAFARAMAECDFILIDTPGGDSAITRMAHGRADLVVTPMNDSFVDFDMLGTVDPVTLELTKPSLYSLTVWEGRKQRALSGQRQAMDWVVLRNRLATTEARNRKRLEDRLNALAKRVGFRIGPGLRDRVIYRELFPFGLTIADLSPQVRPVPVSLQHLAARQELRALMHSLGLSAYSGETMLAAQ

B1: ran14-up/ran14-lo 14 bp (dsDNA)
DNA 1: GCCGCCGCCGCCGC
DNA 2: GCGGCGGCGGCGGC
binding result (ParA WT): binds
binding result (MipZ D42A): binds
